Legend:
[1] = biological target: FAM-labeled calmodulin T34C (UniProt P0DP23); test: fluorescence polarisation; fluorescence anisotropy; 30 nM FAM-CaM with Ca2+, titrated with a twofold dilution series of iPLA2β; 25 mM HEPES 7.5, 150 mM NaCl, 10% glycerol; 15 min at 25 °C
[2] = biological target: Calcium-independent phospholipase A2β, short variant (SH-iPLA2β, 752 amino acids), wild type (Chinese hamster (gene cloned from CHO cells)); test: AUC; sedimentation velocity, 20 °C, 35,000 rpm, absorbance at 280 nm; 25 mM HEPES 7.5, 500 mM NaCl, 10% glycerol; c(s) model in SEDFIT
[3] = biological target: Calcium-independent phospholipase A2β, short variant (SH-iPLA2β, 752 amino acids), wild type (Chinese hamster (gene cloned from CHO cells))

Row | Kd [1] [nM] | stoichiometry N [2] | Ki of inhibition of iPLA2β enzymatic activity by CaM in the presence of Ca2+ (fluorogenic assay with Pyrene-PC liposomes) [3] [nM] | Substance
1 | 112 | 2 |  | Calcium-independent phospholipase A2β, short variant (SH-iPLA2β, 752 amino acids), wild type (enzyme)
2 |  |  | 23 | Calmodulin (CaM), unmodified (from UniProt P0DP23 1-149) (natural protein)
3 | > 1400 |  |  | iPLA2β W695E mutant (enzyme)
